One block for each binder: values may come before it. Ends that are not written are not given here. Pep Spots Membrane = cellulose membrane (Jerini Biotools) to which the peptides are covalently attached at their C-termini as individual spots
Assays:
[1] = molecular target: recombinant soluble human 17-1A-antigen (human) (UniProt P16422); assay: SPR (BIACORE 2000), s17-1A immobilized on CM5 chip, 1. set
[2] = molecular target: recombinant soluble human 17-1A-antigen (human) (UniProt P16422); assay: SPR (BIACORE 2000), s17-1A immobilized on CM5 chip, 2. set (internal reference)
[3] = molecular target: T1, recombinant soluble human 17-1A-antigen (human, UniProt P16422 24-265); assay: SPR (BIACORE 2000), s17-1A immobilized on CM5 chip, 1. set
T1 construct: extracellular domain; also called s17-1A; soluble 17-1A-antigen
T1 sequence (looked up): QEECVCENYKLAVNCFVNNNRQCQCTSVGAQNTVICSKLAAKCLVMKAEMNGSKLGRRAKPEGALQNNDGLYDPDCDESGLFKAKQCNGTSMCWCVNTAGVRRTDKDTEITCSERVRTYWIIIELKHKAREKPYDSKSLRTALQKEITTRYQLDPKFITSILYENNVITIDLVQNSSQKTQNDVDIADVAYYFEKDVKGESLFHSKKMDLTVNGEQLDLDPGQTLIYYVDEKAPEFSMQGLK
Protocol: Surface plasmon resonance measurement was performed using the BIACORE 2000 device (Biacore AB, Freiburg, Freiburg, Germany). Immobilization of recombinant soluble 17-1A-antigen in each flow cell and analysis of the interaction was carried out with an automatic method in BIACORE 2000. The antigen was covalently coupled to sensor chip CM5 via primary amine groups. After activation of the carboxylated dextran matrix of CM5 sensor chip with a single injection of 80 μl of 0.1 M N-hydroxisuccinimide/0.4 M N-ethyl-N′-(3-dimethylaminopropyl)-carbodiimide (NHS/EDC9) through all four flow cells, flow cells 1,2,3 and 4 were successively included ito the flow path during injection of s17-1A-antigen (60 μg/ml in 10 mM sodium acetate, pH 4.7). Different contact times of 17-1A to the activated surface lead to approximately 2500 response units (RU9 in flow cell 1, […] in flow cell 2, 780 RU in flow cell 3 and 290 RU in flow cell 4). Excess activated esters were blocked by injection of 85 μl 1 M ethanolamine pH 5 over all four flow cells. Binding experiments were performed at 25° C. in buffer of pH 7.4 containing 10 mM Hepes, 150 mM NaCl, 3 mM EDTA and 0.005% surfactant P20. The binding kinetics of antibodies to immobilized recombinant 17-1A were determined by injecting antibody concentrations ranging from 0.5 to 2 μM. The sensor chip was regenerated between each run with 100 mM Glycin, 500 mM NaCl, 0.005% Tween pH3. The association and dissociation rate constants, Kon and Koff were analysed using BIA-evaluation software from Biacore AB as described (Karlsson, (1991) J Immunol Meth 145: 229-240). Two sets of affinity determinations were carried out (1.set: M79, H79, D7.2, Panorex; 2. set: Panorex, HD70); the murine Panorex was also included in set 2 as internal reference.

[4] = molecular target: T2, 17-1A peptide 14 (human, cysteine pairing not given here); assay: peptide spot membrane, electrotransfer, anti-human secondary antibody, chemoluminescence
T2 construct: also called peptide spot 14
T2 peptide: NRQCQCTSVGAQN-{Pep Spots Membrane}
Description: (§1) Due to a higher degree of crossreactivity of the secondary HRP-conjugated anti-human immunoglobulin antibody with several peptide spots, bound human antibodies H79 and HD70 were transfered from the Pep Spots Membrane to a blotting membrane, respectively, by means of electrotransfer and subsequently detected by said anti human secondary antibody and chemoluminescence. Specific binding of human antibody H79 could be detected mainly at peptide spots 8, 11, 13, 14, 59-60, 77 and 79; however, no binding was detectable in case of human antibody HD70.
(§2) The PepSpots Membrane with the synthesized peptides was shaken for ten minutes in methanol and then washed three times for ten minutes in TBS-buffer pH8. The membrane was then blocked in casein based blocking solution, containing 0.05 g/ml sucrose for one hour and then once shaken in TBS pH8/0.05%Tween 20 (TBS-T).
(§3) Each of the anti-17-1A antibodies was incubated at room temperature together with the membrane for three hours in blocking solution (1 μg antibody/ml). After three washes in TBS-T for ten minutes each, the horse radish peroxidase (HRP)-conjugated secondary antibody (anti mouse/anti human; 1 μg/ml blocking solution) was incubated for two hours at room temperature together with the membrane. Then the membrane was washed for three times in TBS-T for ten minutes each. Detection of bound antibodies was performed directly on the Pep Spots Membrane in case of M79 according to the protocol of the chemoluminescence kit manufacturer (Boehringer). The blot was regenerated after three washes with TBS-T (10 min.) in a solution containing 50 mM Tris-HCl pH 6.7, 100 mM 2-Mercaptoethanol and 2% (w/v) SDS for 30 min at 50° C. and subsequently reused for epitope mapping of the next antibody. Due to the higher degree of unspecific binding of the anti-human immunoglobulin secondary antibody to the polypeptide-spots on the membrane, a fractionated electrotransfer to a second blotting-membrane followed by detection with the anti-human secondary antibody was carried out in case of HD70 and H79 according to Rüdiger, EMBO 16 (1997) 1501-1507. Incubation with the secondary antibody and antibody detection on the blots was performed as described above.

[5] = molecular target: T3, 17-1A peptide 8 (human); assay: as above
T3 construct: also called peptide spot 8
T3 peptide: NYKLAVNCFVNNN-{Pep Spots Membrane}
Description: as §1, §2, §3

[6] = molecular target: T4, 17-1A peptide 79 (human); assay: as above
T4 construct: also called peptide spot 79
T4 peptide: RYQLDPKFITSIL-{Pep Spots Membrane}
Description: as §1, §2, §3

[7] = molecular target: T5, 17-1A peptide 13 (human, cysteine pairing not given here); assay: as above
T5 construct: also called peptide spot 13
T5 peptide: NNNRQCQCTSVGA-{Pep Spots Membrane}
Description: as §1, §2, §3

[8] = molecular target: T6, 17-1A peptide 59 (human); assay: as above
T6 construct: also called peptide spot 59
T6 peptide: ITCSERVRTYWII-{Pep Spots Membrane}
Description: as §1, §2, §3

[9] = molecular target: T7, 17-1A peptide 60 (human); assay: as above
T7 construct: also called peptide spot 60
T7 peptide: CSERVRTYWIIIE-{Pep Spots Membrane}
Description: as §1, §2, §3

[10] = molecular target: T8, 17-1A peptide 11 (human, cysteine pairing not given here); assay: as above
T8 construct: also called peptide spot 11
T8 peptide: NCFVNNNRQCQCT-{Pep Spots Membrane}
Description: as §1, §2, §3

[11] = molecular target: T1, recombinant soluble human 17-1A-antigen; assay: ELISA of periplasma Fab preparations on immobilized s17-1A
Protocol: As previously mentioned in example I, E. coli XL1 Blue transformed with pComb3H containing one light and the Fd-segment of one heavy chain produce soluble Fab in sufficient amounts after excision of the gene III fragment and induction with IPTG. The heavy chain Fd-segment and the light chain are exported into the periplasma where they assemble and form functional Fab-fragments. For better periplasma preparations the cells were grown in SB-medium supplemented with 20 mM MgCl₂ and are redissolved in PBS after harvesting. By four rounds of freezing at −70° C. and thawing at 37° C., the outer membrane of the bacteria was destroyed by temperature shock and the soluble periplasmatic proteins including the Fab fragments were released into the supernatant. After elimination of intact cells and cell-debris by centrifugation, the supernatants containing the Fab-antibody-fragments were collected and used for further examination. […]
Detection of k8-D4.5 and k5.1-D4.5-Fab-fragments bound to immobilized s17-1A anigen was carried out using a polyclonal biotinylated anti-human-kappa light chain antibody (1 μg/ml PBS) detected with horse raddish conjugated Avidine (1 μg/ml PBS). The signal was developed by adding a substrate solution, containing 2,2′Azino-bis(3-Ethylbenz-Thiazoline-6-Sulfonic Acid) and Na-perborate and detected at a wavelength of 405 nm.

[12] = molecular target: T9, human 17-1A-antigen on cells (Kato gastric cancer cells, 17-1A-transfected CHO cells, colon tissue) (human, UniProt P16422 24-314); assay: flow cytometry on Kato cells and 17-1A-transfected CHO cells, periplasma preparation
T9 construct: whole, on cells; also called transmembrane 17-1A; CHO/17-1A
T9 sequence (looked up): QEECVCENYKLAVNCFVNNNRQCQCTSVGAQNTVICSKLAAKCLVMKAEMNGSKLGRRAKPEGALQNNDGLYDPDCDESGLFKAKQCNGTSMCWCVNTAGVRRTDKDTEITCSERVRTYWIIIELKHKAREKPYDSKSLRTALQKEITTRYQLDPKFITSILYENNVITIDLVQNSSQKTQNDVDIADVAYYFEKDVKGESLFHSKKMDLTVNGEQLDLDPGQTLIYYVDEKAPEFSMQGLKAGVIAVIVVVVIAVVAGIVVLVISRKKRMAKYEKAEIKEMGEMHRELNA
Description: The test for binding of the two 17-1A positive human Fab-fragments (k8-D4.5-Fab and k5.1-D4.5-Fab) on Kato-cells (17-1A expressing gastric cancer cell-line), 17-1A transfected CHO-cells (CHO/17-1A) and non-transfected CHO-cells was again carried out with the periplasma preparations. CHO transfected cell-lines were generated by subcloning of a DNA-fragment encoding the complete amino acid sequence of the 17-1A-antigen also known as GA733-2 (Szala, Proc. Natl. Acad. Sci. U.S.A. 87 (1990), 3542-3546), into the eucaryotic expression vector pEF-DHFR (Mack, , Proc. Natl. Acad. Sci. U.S.A. 92 (1995) 7021-7025) according to standard procedures (Sambrook, Molecular Cloning; A Laboratory Manual, Second Edition, Cold Spring Harbour Laboratory Press, Cold Spring Harbour, N.Y. (1989)). The resulting plasmid was linearized with NdeI and transfected into DHFR-deficient CHO-cells for stable expression. The expression of transmembrane 17-1A was increased by stepwise gene amplification induced by subsequent addition of increasing concentrations of the DHFR-inhibitor Methotrexat (MTX) to a final concentration of 500 nM, with the concentration steps in between being 20 nM and 100 nM (Kaufmann, Methods Enzymol. 185 (1990), 537-566). […] Labeled cells were then analyzed by flow cytometry.

Kd [1]: 200 nM
koff [1]: 0.022 s⁻¹
kon [1]: 110000 M⁻¹ s⁻¹
Kd [2]: 270 nM
koff [2]: 0.027 s⁻¹
kon [2]: 100000 M⁻¹ s⁻¹
B1: Panorex (antibody, INN chains, looked up, V domains shown)
VH: QVQLQQSGAELVRPGTSVKVSCKASGYAFTNYLIEWVKQRPGQGLEWIGVINPGSGGTNYNEKFKGKATLTADKSSSTAYMQLSSLTSDDSAVYFCARDGPWFAYWGQGTLVTVSA
VL: NIVMTQSPKSMSMSVGERVTLTCKASENVVTYVSWYQQKPEQSPKLLIYGASNRYTGVPDRFTGSGSATDFTLTISSVQAEDLADYHCGQGYSYPYTFGGGTKLEIK

Kd [3]: 340 nM
koff [3]: 0.0072 s⁻¹
kon [3]: 21000 M⁻¹ s⁻¹
binding result [4]: binds
binding result [5]: binds
binding result [6]: binds
binding result [7]: binds
binding result [8]: binds
binding result [9]: binds
binding result [10]: binds
B2: H79-huIgG1 (VD4.5huIgG1-k8) (antibody, V domains shown)
VH: EVQLLESGGGVVQPGRSLRLSCAASGFTFSSYGMHWVRQAPGKGLEWVAVISYDGSNKYYADSVKGRFTISRDNSKNTLYLQMNSLRAEDTAVYYCAKDMGWGSGWRPYYYYGMDVWGQGTTVTVSS
VL: ELQMTQSPSSLSASVGDRVTITCRTSQSISSYLNWYQQKPGQPPKLLIYWASTRESGVPDRFSGSGSGTDFTLTISSLQPEDSATYYCQQSYDIPYTFGQGTKLEIK
notes: Complete antibody produced in CHO cells; also called H79 human IgG1; human H79

binding result [11]: binds
binding result [12]: binds
B3: k5.1-D4.5-Fab (Fab, V domains shown)
VH: EVQLLESGGGVVQPGRSLRLSCAASGFTFSSYGMHWVRQAPGKGLEWVAVISYDGSNKYYADSVKGRFTISRDNSKNTLYLQMNSLRAEDTAVYYCAKDMGWGSGWRPYYYYGMDVWGQGTTVTVSS
VL: ELQMTQSPSSLSASVGDRVTITCRASQSISSYLNWYQQKPGQPPKLLIYWASTRESGVPDRFSGSESGTNYTLTISSLQPEDFATYFCQQSDSLPITFGQGTRLDIQ
notes: Soluble Fab tested as an E. coli periplasma preparation

Source: patent US20030148463A1 (published 2003)
